Reference: publication PMC11109196 (2024)

Columns and labels:
Assay in all cases: BLI
[1] = molecular target: T1, gp120 A2 (clade A, 92UG037.8) (HIV-1 isolate 92UG037.8)
Bal gp120 [2] = molecular target: Bal gp120 (HIV-1 isolate Bal)
[3] = molecular target: T2, gp120 Czm (clade C, 96ZM652) (HIV-1 isolate 96ZM652)
[4] = molecular target: gp120 AE (clade E, 93TH976.17) (HIV-1 isolate 93TH976.17)
[5] = molecular target: gp120 B (clade B, 92US715.6) (HIV-1 isolate 92US715.6)
[6] = molecular target: T1, gp120 A2 (clade A, 92UG037.8); remark: listed apart in the source
Bal gp120 [7] = molecular target: Bal gp120 (HIV-1 isolate Bal); remark: listed apart in the source
[8] = molecular target: T2, gp120 Czm (clade C, 96ZM652); remark: listed apart in the source

B1: HmAb64 (antibody, V domains shown)
VH: QVQLVQSGAEVKKPGASVKVSCKASGYTFTSYDITWVRQAPGQGLEWMGWISAYNGDTNYAQRLQGRVTMTTDTSTSTAYMELRSLRSDDTAVYYCARAKHTVLVTAMRWFDPWGQGTLVTVSS
VL: DIQMTQSPSSLSASVGDRVTITCRASQSISNYLNWYQQKPGKAPKLLISATSSLQSGVPSRFSGSGSGTDFTLTISSLQPDDFATYYCQQSYSTPWTFGQGTKLEIK
With B1 the koff [1] was 0.000641 s⁻¹, the koff (Bal gp120 [2]) was 0.000459 s⁻¹ and the koff [3] was 0.000454 s⁻¹. The Kd [4] was 20 nM, the koff [4] was 0.000423 s⁻¹ and the Kd [5] was 22.9 nM. The koff [5] was 0.000684 s⁻¹, the Kd [6] was 39.4 nM and the Kd (Bal gp120 [7]) was 16 nM. For the same binder, the Kd [8] was 22.5 nM.
